From the RNAGym collection of RNA variant scans (doi:10.1093/nar/gkz1192)

B1: CPEB3 Ribozyme (parent)
chain: UAACAGGGGGCCACAGCAGAAGCGUUCACGUCGCAGCCCCUGUCAGAUUCUGGUGAAUCUGCGAAUUCUGCUGUAUAUCUC

Variants of: B1
Test: self-cleavage, relative activity (ratio to wild type); higher = more cleavage; in vitro, sequencing
Procedure, shortened: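 Relative activity was defined as the cleaved/total read fraction for a variant divided by the same fraction for the unmutated ribozyme. CPEB3 self-cleaving ribozyme libraries were made by rounds of error-prone PCR, barcoded, and transcribed in vitro with T7 RNA polymerase for 5 hours at 37°C, and cleavage ran through transcription plus a 15 min DNase I step before EDTA. Illumina sequencing of template-switched reverse transcripts gave the reads, and DNA sequencing mapped the barcodes. Averages come from three batches, using variants with at least 5 reads.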

Variant | self-cleavage
UAACAGGGGGCCUCAGCAGAAGCGUUCACGUCGCAGCCCCUGUCAGAUUAUGGUGAAUCUGCGAAUUCUGCUGUAUAUCUC [A13U C50A] | 0.98
UAACAGGGGGCCUCAGCAGAAGCGUUCACGUCGCAGCCCCUGUCAGAUUUUGGUGAAUCUGCGAAUUCUGCUGUAUAUCUC [A13U C50U] | 0.89
UAACAGGGGGCCUCAGCAGAAGCGUUCACGUCGCAACCCCUGUCAGAUUCUGGUGAAUCUGCGAAUUCUGCUGUAUAUCUC [A13U G36A] | 0.33
UAACAGGGGGCCUCAGCAGAAGCGUUCACGUCGCAGCCCCUGUCAGAUUCUGGUGAAUCUACGAAUUCUGCUGUAUAUCUC [A13U G61A] | 0.91
UAACAGGGGGCCUCAGCAGAAGCGUUCACGUCGCAGCCCCUAUCAGAUUCUGGUGAAUCUGCGAAUUCUGCUGUAUAUCUC [A13U G42A] | 0.19
UAACAGGGGGCCUCAGCAGAAGCGUUCACGUCGCAGCCCCUUUCAGAUUCUGGUGAAUCUGCGAAUUCUGCUGUAUAUCUC [A13U G42U] | 0.12
UAACAGGGGGCCUCAGCAGAAGCGUUCACGUCGCAGCCCCUGUCAGAUUCUGGUGAAUCUGCGAAUUAUGCUGUAUAUCUC [A13U C68A] | 0.54
UAACAGGGGGCCUCAGCAGAAGCGUUCACGUCGCAGCCCCUGUCAGAUUCUGGUGAAUCUGCGAAUUUUGCUGUAUAUCUC [A13U C68U] | 1.21
UAACAGGGGGCCUCAGCAGAAGCGUUCACGUCGCAGCCCCUGUCAGAUUCUGGUGAAUCUGCGAAUUCUACUGUAUAUCUC [A13U G70A] | 0.48
UAACAGGGGGCCUCAGCAGAAGCGUUCACGUCGCAGCCCCUGUCAGAUUCUGGUGAAUCUGCGAAUUCUCCUGUAUAUCUC [A13U G70C] | 0.21
UAACAGGGGGCCUCAGCAGAAGCGUUCACGUCGCAGCCCCAGUCAGAUUCUGGUGAAUCUGCGAAUUCUGCUGUAUAUCUC [A13U U41A] | 0.26
UAACAGGGGGCCUCAGCAGAAGCGUUCACGUCGCAGCCCCCGUCAGAUUCUGGUGAAUCUGCGAAUUCUGCUGUAUAUCUC [A13U U41C] | 1.2
UAACAGGGGGCCUCAGCAGAAGCGUUCACGUCGCAGCCCCUGUCAGAUUCCGGUGAAUCUGCGAAUUCUGCUGUAUAUCUC [A13U U51C] | 0.94
UAACAGGGGGCCUCAGCAGAAGCGUUCACGUCGCAGCCCCUGUCAGAUUCAGGUGAAUCUGCGAAUUCUGCUGUAUAUCUC [A13U U51A] | 1.21
UAACAGGGGGCCUCAGCAGAAGCGUUCACGUCGCAGCCCCUGUCAGAUUCGGGUGAAUCUGCGAAUUCUGCUGUAUAUCUC [A13U U51G] | 1.27
UAACAGGGGGCCUCAGCAGAAGCGUUCACGUCGCAGCCCCUGUCAGAUUCUGGUGAAUCUGUGAAUUCUGCUGUAUAUCUC [A13U C62U] | 0.22
UAACAGGGGGCCUCAGCAGAAGCGUCCACGUCGCAGCCCCUGUCAGAUUCUGGUGAAUCUGCGAAUUCUGCUGUAUAUCUC [A13U U26C] | 0.64
UAACAGGGGGCCUCAGCAGAAGCGUGCACGUCGCAGCCCCUGUCAGAUUCUGGUGAAUCUGCGAAUUCUGCUGUAUAUCUC [A13U U26G] | 0.4
UAACAGGGGGCCUCAGCAGAAGCGUACACGUCGCAGCCCCUGUCAGAUUCUGGUGAAUCUGCGAAUUCUGCUGUAUAUCUC [A13U U26A] | 1.08
UAACAGGGGGCCUCAGCAGAAGCGUUCACGUCGCAGCCCCUGUUAGAUUCUGGUGAAUCUGCGAAUUCUGCUGUAUAUCUC [A13U C44U] | 0.23
UAACAGGGGGCCUCAGCAGAAGCGUUCACGUCGCAGCCCCUGUAAGAUUCUGGUGAAUCUGCGAAUUCUGCUGUAUAUCUC [A13U C44A] | 0.29
UAACAGGGGGCCUCAGCAGAAGCGUUCACGUCGCAGCCCCUGUCAGAUUCUGGUGAAUCUGCGAAUUCUGCUGUAUAUAUC [A13U C79A] | 1.28
UAACAGGGGGCCUCAGCAGAAGCGUUCACGUCGCAGCCCCUGUCAGAUUCUGGUGAAUCUGCGAAUUCUGCUGUAUAUUUC [A13U C79U] | 1.31

Variant | self-cleavage
UAACAGGGGGCCUCAGCAGAAGCGUUCACGUCGCAGCCCCUGGCAGAUUCUGGUGAAUCUGCGAAUUCUGCUGUAUAUCUC [A13U U43G] | 0.26
UAACAGGGGGCCUCAGCAGAAGCGUUCACGUCGCAGCCCCUGACAGAUUCUGGUGAAUCUGCGAAUUCUGCUGUAUAUCUC [A13U U43A] | 1.09
UAACAGGGGGCCUCAGCAGAAGCGUUCACGUCGCAGCCCCUGCCAGAUUCUGGUGAAUCUGCGAAUUCUGCUGUAUAUCUC [A13U U43C] | 0.93
UAACAGGGGGCCUCAGCAGAAGCGUUCACGUCGCAGCCCCUGUCAGAUUCUCGUGAAUCUGCGAAUUCUGCUGUAUAUCUC [A13U G52C] | 1.24
UAACAGGGGGCCUCAGCAGAAGCGUUCACGUCGCAGCCCCUGUCAGAUUCUAGUGAAUCUGCGAAUUCUGCUGUAUAUCUC [A13U G52A] | 1.22
UAACAGGGGGCCUCAGCAGAAUCGUUCACGUCGCAGCCCCUGUCAGAUUCUGGUGAAUCUGCGAAUUCUGCUGUAUAUCUC [A13U G22U] | 0.34
UAACAGGGGGCCUCAGCAGAACCGUUCACGUCGCAGCCCCUGUCAGAUUCUGGUGAAUCUGCGAAUUCUGCUGUAUAUCUC [A13U G22C] | 0.19
UAACAGGGGGCCUCAGCAGAAGCGUUCACGUCGCAGCCCCUGUCAGAUUCUGGUGAAUCUGCGAAUUCUGAUGUAUAUCUC [A13U C71A] | 0.33
UAACAGGGGGCCUCAGCAGAAGCGUUCACGUCGCAGCCCUUGUCAGAUUCUGGUGAAUCUGCGAAUUCUGCUGUAUAUCUC [A13U C40U] | 1.25
UAACAGGGGGCCUCAGCAGAAGCGUUCACGUCGCAGCCCCUGUCAGAUUCUGGUGAAUCUGCGAAUUCUGCUCUAUAUCUC [A13U G73C] | 1.26
UAACAGGGGGCCUCAGCAGAAGCGUUCACGUCGCAGCCCCUGUCAGAUUCUGGUGAAUCUGCGAAUUCUGCUAUAUAUCUC [A13U G73A] | 1.23
UAACAGGGGGCCUCAGCAGAAGCGUUCACGUCGCAGCCCCUGUCAGAUUCUGGUGAAUCUGCGAAUUCUGCUUUAUAUCUC [A13U G73U] | 1.24
UAACAGGGGGCCUCAGCAGAAGCGUUCACGUCGCAGCUCCUGUCAGAUUCUGGUGAAUCUGCGAAUUCUGCUGUAUAUCUC [A13U C38U] | 0.89
UAACAGGGGGCCUCAGCAGAAGCGUUCACGUCGCAGCACCUGUCAGAUUCUGGUGAAUCUGCGAAUUCUGCUGUAUAUCUC [A13U C38A] | 0.12
UAACAGGGGGCCUCAGCAGAAGCGUUCACGUCGCAGCGCCUGUCAGAUUCUGGUGAAUCUGCGAAUUCUGCUGUAUAUCUC [A13U C38G] | 0.41
UAACAGGGGGCCUCAGCAGAAGCGUUCACGUCGCAGCCCCUGUCAGAUUCUGGUGAAUAUGCGAAUUCUGCUGUAUAUCUC [A13U C59A] | 0.58
UAACAGGGGGCCUCAGCAGAAGCGUUCACGUCGCAGCCCCUGUCAGAUUCUGGUUAAUCUGCGAAUUCUGCUGUAUAUCUC [A13U G55U] | 0.83
UAACAGGGGGCCUCAGCAGAAGCGUUCACGGCGCAGCCCCUGUCAGAUUCUGGUGAAUCUGCGAAUUCUGCUGUAUAUCUC [A13U U31G] | 0.66
UAACAGGGGGCCUCAGCAGAAGCGUUCACGACGCAGCCCCUGUCAGAUUCUGGUGAAUCUGCGAAUUCUGCUGUAUAUCUC [A13U U31A] | 0.61
UAACAGGGGGCCUCAGCAGAAGCGUUCACGCCGCAGCCCCUGUCAGAUUCUGGUGAAUCUGCGAAUUCUGCUGUAUAUCUC [A13U U31C] | 1.01
UAACAGGGGGCCUCAGCAGAAGCGUUCACGUCGCAGCCCCUGUCAGAAUCUGGUGAAUCUGCGAAUUCUGCUGUAUAUCUC [A13U U48A] | 0.56
UAACAGGGGGCCUCAGCAGAAGCGUUCACGUCGCAGCCCCUGUCAGACUCUGGUGAAUCUGCGAAUUCUGCUGUAUAUCUC [A13U U48C] | 0.77
UAACAGGGGGCCUCAGCAGAAGCGUUCACGUCGCAGCCCCUGUCAGAUUCUGAUGAAUCUGCGAAUUCUGCUGUAUAUCUC [A13U G53A] | 1.27

Variant | self-cleavage
UAACAGGGGGCCUCAUCAGAAGCGUUCACGUCGCAGCCCCUGUCAGAUUCUGGUGAAUCUGCGAAUUCUGCUGUAUAUCUC [A13U G16U] | 0.47
UAACAGGGGGCCUCAGCAGAAGCGUUCACGUCGCAGCCCCUGUCAGAUUCUGGUGAAUCUGCGAAUUCUGCUGUAUAUCUU [A13U C81U] | 1.2
UAACAGGGGGCCUCAGCAGAAGCGUUCACAUCGCAGCCCCUGUCAGAUUCUGGUGAAUCUGCGAAUUCUGCUGUAUAUCUC [A13U G30A] | 0.24
UAACAGGGGGCCUCAGCAGAAGCGUUCACUUCGCAGCCCCUGUCAGAUUCUGGUGAAUCUGCGAAUUCUGCUGUAUAUCUC [A13U G30U] | 0.11
UAACAGGGGGCCUCAGCAGAAGCGUUCACGUCGCAGCCCCUGUCAGAUCCUGGUGAAUCUGCGAAUUCUGCUGUAUAUCUC [A13U U49C] | 0.31
UAACAGGGGGCCUCAGCAGAAGCGUUCACGUCGCAGCCCCUGUCAGAUACUGGUGAAUCUGCGAAUUCUGCUGUAUAUCUC [A13U U49A] | 0.71
UAACAGGGGGCCUCAGCAGAAGCGUUCACGUCGCAGCCCCUGUCAGAUUCUGGUGAAUCUGCAAAUUCUGCUGUAUAUCUC [A13U G63A] | 1.05
UAACAGGGGGCCUCAGCAGAAGCGUUCACGUCGCAGCCCCUGUCAGAUUCUGGUGAAUCUGCUAAUUCUGCUGUAUAUCUC [A13U G63U] | 1.09
UAACAGGGGGCCUCAGCAGAAGCGUUCACGUCCCAGCCCCUGUCAGAUUCUGGUGAAUCUGCGAAUUCUGCUGUAUAUCUC [A13U G33C] | 0.2
UAACAGGGGGCCUCAGCAGAAGCGUUCACGUCACAGCCCCUGUCAGAUUCUGGUGAAUCUGCGAAUUCUGCUGUAUAUCUC [A13U G33A] | 0.21
UAACAGGGGGCCUCAGCAGAAGCGUUCACGUCUCAGCCCCUGUCAGAUUCUGGUGAAUCUGCGAAUUCUGCUGUAUAUCUC [A13U G33U] | 0.11
UAACAGGGGGCCUCAGCAGAAGCGUUCACGUCGCAGCCUCUGUCAGAUUCUGGUGAAUCUGCGAAUUCUGCUGUAUAUCUC [A13U C39U] | 1.18
UAACAGGGGGCCUCAGCAGAAGCGUUCACGUCGCAGCCACUGUCAGAUUCUGGUGAAUCUGCGAAUUCUGCUGUAUAUCUC [A13U C39A] | 0.15
UAACAGGGGGCCUCAGCAGAAGCGUUCACGUCGCAGCCGCUGUCAGAUUCUGGUGAAUCUGCGAAUUCUGCUGUAUAUCUC [A13U C39G] | 0.51
UAACAGGGGGCCUCAGCAGAAGCGUUCACGUCGCAGCCCCUGUCAGAUUCUGGUGAAACUGCGAAUUCUGCUGUAUAUCUC [A13U U58A] | 0.44
UAACAGGGGGCCUCAGCAGAAGCGCUCACGUCGCAGCCCCUGUCAGAUUCUGGUGAAUCUGCGAAUUCUGCUGUAUAUCUC [A13U U25C] | 0.28
UAACAGGGGGCCUCAGCAGAAGCGAUCACGUCGCAGCCCCUGUCAGAUUCUGGUGAAUCUGCGAAUUCUGCUGUAUAUCUC [A13U U25A] | 0.26
UAACAGGGGGCCUCAGCAGAAGCAUUCACGUCGCAGCCCCUGUCAGAUUCUGGUGAAUCUGCGAAUUCUGCUGUAUAUCUC [A13U G24A] | 0.26
UAACAGGGGGCCUCAGCAAAAGCGUUCACGUCGCAGCCCCUGUCAGAUUCUGGUGAAUCUGCGAAUUCUGCUGUAUAUCUC [A13U G19A] | 0.17
UAACAGGGGGCCUCAGCAGAAGCGUUCACGUCGCAGCCCCUGUCAGAUUCUGGCGAAUCUGCGAAUUCUGCUGUAUAUCUC [A13U U54C] | 1.1
UAACAGGGGGCCUCAGCAGAAGCGUUCACGUCGCAGCCCCUGUCAGAUUCUGGAGAAUCUGCGAAUUCUGCUGUAUAUCUC [A13U U54A] | 1.18
UAACAGGGGGCCUCAGCAGAAGCGUUCACGUCGCAGCCCCUGUCAGAUUCUGGGGAAUCUGCGAAUUCUGCUGUAUAUCUC [A13U U54G] | 1.01
